Data taken from patent publication US20160051704A1, “MOLECULAR IMAGING PROBES FOR LUNG CANCER INTRAOPERATIVE GUIDANCE” (H. Lee Moffitt Cancer Center and Research Institute, Inc., priority 2013, published 2016).

Target: T1, delta opioid receptor (δOR) on HCT-116/δOR cells, P41143
T1 chain: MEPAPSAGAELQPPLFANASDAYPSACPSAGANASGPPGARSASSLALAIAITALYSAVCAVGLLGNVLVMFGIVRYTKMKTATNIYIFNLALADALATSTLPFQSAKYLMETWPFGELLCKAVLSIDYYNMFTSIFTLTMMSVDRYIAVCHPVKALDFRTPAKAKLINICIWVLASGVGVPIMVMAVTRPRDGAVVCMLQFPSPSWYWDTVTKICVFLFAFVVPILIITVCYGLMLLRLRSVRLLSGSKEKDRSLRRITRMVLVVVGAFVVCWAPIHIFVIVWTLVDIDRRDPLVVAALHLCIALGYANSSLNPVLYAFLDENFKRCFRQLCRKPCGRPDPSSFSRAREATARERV
Experiment: in cyto time-resolved fluorescence saturation binding on HCT-116/δOR cells

B1: Europium (Eu)-diethylenetriaminepentaacetic acid (DTPA)[D-Pen2, L-Cys5] enkephalin (DPLCE) (peptide)
chain: YCGFC
modifications: not checked
Question: How did the Bmax turn out when B1 was run?
Answer: Its Bmax is 3.01e+06 AFU.
